The nanobody polyreactivity screen of Harvey et al. (2022)

Assay: yeast display, Sf9 membrane polyspecificity reagent, FACS + sequencing; frameworks hold sequencing errors
Method in brief: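 Galactose-induced (36–48 hours) yeast carrying a synthetic nanobody display library were exposed to 10% biotinylated, detergent-solubilized Sf9 membrane reagent at 4 °C for 1 hour. FACS followed streptavidin microbead enrichment, using low and high (top ~1%) gates for expression (anti-HA) and reagent binding (streptavidin). Colony PCR, MiSeq 2 × 250 sequencing and CDR-length filtering followed. Labels for polyreactivity reflect the gate of origin.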

| Sequence | polyreactivity (PSR sort gate) |
| --- | --- |
| QVQHVESGGGLVQAGGSLLLSCAASGSTFGFYTMGWYRQAPGKERELVAAISWSTGRTYYADSVKGRFTISRDNAKNTVYLQMNSLKPEDTAVYYCNADGYPEQVYYYSAFQGMDYWGQGTQVTVSS | low polyreactivity |
| QVQLVESGAGIVQAGGSLRLSCAASGRTCTWYAMGWYTQAPGKERELVAAISKSGGSTYYADSVKGRFTISRDTAKNTVFLQMNSLKPEDTAVYYCNADFYGYFLGYGYWGQGTQVTVSS | low polyreactivity |
| QVQLVESGGGIVQAGGSLRLSCAASGRIFTQYTMGWYRQAPGKERELVAAINYSGGRTNYADSVKGRFTISRDIAKNTVYLQMNSLKPEDTAVYYCAAGYRRATYGYWGQGTQVTVSS | high polyreactivity |
| QVQLVESGGGLVQAGGSLRLSCAASGYTFSYYAMGWYRQAPGKERELVAAITSTGSTYYADSVKGRFTISRDNAKNTDYFQMNSLKPEDTEVYYCNVDVATVGPVDYWGQGTQVTVSS | low polyreactivity |
| QVQLVESGGGLLQAGGSLRLSCAASGSTFGHYAMGWYRQAPGKERELVAAITWSGGSTYYADSVKGRFTISGDNAKNTVYLQMKSLKPEDTAVYDCAARFGGGAARHGYWGQGTQVTVSS | high polyreactivity |
| QVQLVESGGGLVQAGGSLRLSCAASGITFFRYAMGWYRQAPGKERELVATIRSGDRTYYADSVKGRFTISRDNAKNTVYLQMNSLKPEDTAVYYCAAYDNRYTIRPENYWGQGTQVTVSS | high polyreactivity |
| QVQLVESGGGLVQAGGSLRLSCAASGRIFYYNAMGWYRQAPGKERELVAAISGSGGRTYYADSVKGRFTISRDNAKNTVYLQMNSLKPEDTAVYYCAAAGYDSNGRYWGQGTQVTVSS | high polyreactivity |
| QVQLVESGGGLVQAGGSLRLSCAASGRTFTYNTMGWYRQAPGKERELVAAISSSGGSTYYADSVKGRFTISRDNAKNSVYLQMNSLKPEDTAVYYCAKRYFSSSRYYYWGQGTQVTVSS | high polyreactivity |
| QVQLVESGGGLVQAGASLRLSCAASGSISKSYAMGWYRQAPGKERELVAAISWRGGSTYADSVKGRFTISRDNAKNTVYLQMNSLKPEDTAVYYCAATNYGTFWGGQSERYDYWGQGTQVTVSS | low polyreactivity |
| QVQLVESGGGLVQAGGSLRLSCAASGRIFDINAMGWYRQAPGKESELVAAISRGGSTYYADSVKGRFTISRDNAKHTVDLQMNSLKPQDTAVYYCNKYRYRGSTVFDGYDYWGQGTQVTVSS | high polyreactivity |
| QVQLVESGGGLVQAGGSLRLSCAASGRIFGDYAKGWYRQAPGKERELVAAIRFDTGSTYYADSVKGRFTISRDTAKNTVYLQMNSLKPEDTAVYYCAAQHRGVQVTFGEYDYWGQGTQVTVSS | low polyreactivity |
| QFQLVESGGVLDQAGCSLRLSCAASGYTFYANAMGWYRQAPGKEREFVASIPWSGGSTYYADSVKGRFTISRDNAKNTVYLQMNSLKPEDTAVYYCAAESWFKYDYWGQGTQVTVSS | low polyreactivity |
| QVQIVESGGGIVQAGGSLRLSCGASGRTFYYYAMGWYRQAPGKERELVASITWSGSSTTYADSVKGRFTISRDNSKNTFVLQLNRLKQQASAVYYCAADPYFWGYHFRRYGSWGQGTQVTVSS | low polyreactivity |
| QVQLVESGGGLVQSGGSLRLSCAASGSTLYFKAMGWYRQAPGKERDLVAAITYDGGSTYYADSVKGRFTISRDNAKNTVYLQMNSLKPEDTAVYYCAGRTDGYRNNYWGQGTQVTVSS | high polyreactivity |
| QVQLVESGGGLVQAGGSLRLSCAASGRIFVPNAMGWYRPPPGKERELVAAINWGGGSTYYADSVKGRFTISRDNAKNTVYLQMNSLKPEDTAVYYCAADHPYTIGVLPNQQFDYWGQGTQVTVSS | low polyreactivity |
| QVQLVESGGGLVQAGGSLRLSCAASGRTIKKYTMGWSRQAPGKERELVAVITSGGSTYYADSVKGRFTISRDNAKNTVYFQMNSLKPEDTAVYYCAVIYPELRTWGYYFWGQGTQVTVSS | high polyreactivity |
| QVQHVESGGGLVQAGGSLRLSSAASGFTFNRYAMGWNSQAPGKESELVATITSGGNTYYADSVKGRFTLSRDNAKNTVYLEMNTLKPEDTAVYYCNNRGWYSVYRRDYWGQGTQVTVSS | high polyreactivity |
| QVQLVESWGGLVQAGGSLRLSCDDSGFTIRVYAMGWYRQAPGKERELVAAISVRGDSTYYADSVKGRFTISRDNAKNTVYLQMNSLKPEDTAVYYCNAVIAPYRRYDYWGQGTQVTVSS | high polyreactivity |
| QVQLVESGGGLVQAGGSLRLSCAASGRIFYQNAMGWSRPAPGKERELVAGITRGGSTYYADSVKGRFTISRDNAKNTVYLQMNSLKPEDTAVYYCAVAFWRTKWYDYWGQGTQVTVSS | low polyreactivity |
| QVQLVESGGGLVQAGGSLRLSCAASGLTFPQYAMGWYIQAPGKERELVAAISKTGGSTYYADSVKGRFTISRDNAKNTVYLLMNSLKPEDTAVYYCAAGSSVTPYRYYYWGQGTQVTVSS | high polyreactivity |
| QVQLVESGGGLVQAGGSLRLSCAASGITFGDNAMGWYRQAPGKERELVAAISSGGSTDYADSVKGRFTISRDNAKNTVYLQMNSLNPEDTAVYYCAVDWVSVPEYDYWGQGTQVTVSS | low polyreactivity |
| QVQLVESGGGLVQAGGSLRLSCAASGIIFHPYAMGWYRQAPGKERELVAVITWPGDSTYYADSVKGRFTISRDNAKNTVYLQMNSLKPEDTAVYYCNAAVEGSLNGYEYWGQGTQVTVSS | low polyreactivity |

| Sequence | polyreactivity (PSR sort gate) |
| --- | --- |
| QVQLVESGGGLVQAGGSLRLSCAASGRTFYVNAMGWYRQAPGKERELVAGISFSDGSTYYADSVKGRFTISRDNAKNTVYLQMNSLKPEDTAVYYCASVGAFDIYYGYGYWGQGTQVTVSS | low polyreactivity |
| QVQLVESGGGLVQAGGSLRLSCAASGSIFTGYAMGWYRQAPGKERELVAAIRTRGGSTYYADSVKGRFTISRDNAKNTVYLQMNSLKPEDTAVYYCAKRYYGWYGNFDYWGQGTQVTVSS | high polyreactivity |
| QFQLVESGGGLVQAGGSLRLSCAASAGNFNRYAMGWYRQAPGKEMELVAAISSSGGPTYYADSVKGRFTISRDNAKNTVYLQMNSLKPEDSAVYYCNARYPRLHRTYNYWGQGTQVTVSS | high polyreactivity |
| QVQLVESGGGLVQAGGSLRLSCAASGFIFVVYAMGWYRQAPGTERDLVATISSGGGTYYADSVKGRFTISLDNAKNTVYLQMNSLKPEDTAVYYCAARRRRLYHFGGNNYCGQGTQVTVSS | high polyreactivity |
| QVQLVESGGGLVQAGGSLRLSCAASGSIFGNNAMGWYRQAPGKERELVAAITSGGSTTYADSVKGRFTISRDNAKNTVYLLMNSLKPEDTAVYYCAATPVWGFVWEYNYWGQGTQVTVSS | low polyreactivity |
| QVQLVESGGGLVQAGGSLRLSCAASGSIFESNDMGWYRQAPGKERELVAAYADSVKGRFTISRDNAKNTVYLQMNSLKPEDTAVYYCAKSLSLYVVPLYEYWGQGTQVTVSS | low polyreactivity |
| QVQLVESGGGLVQAGGSLRLSCAASGRIFAYNAMGWYRPAPGKERELVADISSGGNTYYADSVKGRFTISRDNAKNTVYLQMNSLKPEDTAVYYCAADIAWYTHYHRIFDYWGQGTQVTVSS | low polyreactivity |
| QVQLVESGGGLVQAGGSLRLSCAASGSIFYKYAMGWYRQARGKERELVAAINRGVSTYYADSVKGRFTISRDNAKNTVYLQLTSLKPEDTAVYYCNADSTELRGYYYWGLGTQVTVSS | low polyreactivity |
| QVQLVESGGGLVQAGGSLRLSCAASGIIFDSYAMGWYRQAPGKERELVAAISTSGGSTYYADSVKGRFTISRDNAKNTVYLQMNSLKPEDTEVYYCAARYAVSRYRFGFNYWGQGTQVTVSS | high polyreactivity |
| QVQLVDSGGGLVQAGGSLRLSCAASGITFYYYAMGWYRQAAGKERELVAAISSRGGSTYYADSVKGRFTISRDNAKNTVYLQRNSLKPEDTAVYYCAALYGVSEEDDYWGQATQVTVSS | high polyreactivity |
| QVQLVESGGGLVQAGGSLRLSCAASGGTFSTYAMGWYRQAPGKERELVAAISYSTGNTYYADSVKGRFTISRDNAKNTVYFQMNSLKPEDTAVYYCATLGGSQRGLGSFTRKYDYWGQGTQVTVSS | low polyreactivity |
| QVQLVESGGGLVQAGGSLRLSCAASGRTFNTYAMGWYRQAPGKEREFVAAIRYSGDRTNYADSVKGRFTISRDNAKNTVYLQMNSLKPEDTAVYYCAAVNYFPWWSFEYWGQGTQVTVSS | low polyreactivity |
| QVQLVESGGGLVQAGGSLRLSCAASGSTFDWYAMGWYRQAPGKERELVAAISRGSRTYYADSVKGRFTISRDNAKNTVYLQKNSLKPEDTAVYYCARDKPTSYPDYYYWGQGTQVTVSS | high polyreactivity |
| QVQLVESGGGLVQAGGSLRLSCAASGSTFTRYAMGWYRQAPGKERELVAGITGRGGSTYYADSVKGRFTISRDNAKNTVYLQMNSLKPEDTAVYYCNKRRRGVTTYDYWGQGTQVTVSS | high polyreactivity |
| QVQLVESGGGLFQAGGSLRLSCAASGFTIEWYAMGWYRQAPGKERELVATITSSGDSTYYADSEKGRFTISRDNAKNTVYFQMYSLKPEDTAVYYCNVDNSVYDFSEYVYWGQVTQVTVSS | high polyreactivity |
| QVQLVESGGGIVQAGGSLRLSCAASGSTLEPNAMGWYRQAPGKERELVAAITIGGSTYYADSVKGRFTISRDNAKYTVYLQMNSLKPEDTAVYYCAAKSTVQRRRHTNYDYWGQGTQVTVSS | high polyreactivity |
| QVQLVESGGGLVQAGGSLRLSCAASGSTFRRNAMGWYRQAPGKERELVAAISRSGGSTYYADSEKGRFTISRDNAKNTVYLQMNSLKPEDTVVYYCAADAARTSHWSGDYWGQGTQVTVSS | high polyreactivity |
| QVQLVESGGGLVQAGGSLRLSCAASGFIFLPYAKGWYRQAPGKERELVAAITRGGRTYYADSVKGRFTISRDNAKNTVYLQMNSLKPEDTAVYYCAATTYLVWGYNYWGQGTQVTVSS | low polyreactivity |
| QVQLVESGGVLVQAGGSLRLSCAASGFTFVSNDMGWYRQAPGKERELVAAIRYRGGDTYYADSVKGRFTISRDNAKNTVYLQMNSLKPEDTAVYYCATGKRAYSSYLFDYWGQGTQVTVSS | low polyreactivity |
| QVQLVESGGGLVQAGGSLRLSCAASGSIFGWYAMGWYRQAPGKERELVAAISWDGGDTYYADSVKGRFTISRDNAKNTVYLQMNSLKPEDTAVYYCAAELGYYDYGSYYSYDYWGQGTQVTVSS | high polyreactivity |
| QVQLVESGVGLVQAGGSLRLSCAASGLTFLWYAMGWYRQAPGKERELVAAITSGGRTKYADSVKGRFTISRDNAKNTVYLQMNSLKPEDTAVYYCAAYTQWWGYDYWGQGTQVSVSS | high polyreactivity |
